Measurements from the supplement of paper PMC10126150.
± gives the standard deviation of the averaged measurements.

Test system: ATP
Assay: switch fluorescence ratio, 500 uM ATP over buffer (Cy3 cluster intensity, sum of 5 cycles each) (fold (ratio)); higher = stronger signal-on switching upon ATP binding; sequences stand for … in TCGTCGGCAGCGTCAGATGTGTATAAGAGACAGTTTTTTTTTTTTTTTTTTTTTTTTT…TC
Conditions: aptamer strand: ATP DNA aptamer (quencher-CACCTGGGGGAGTATTGCGGAGGAAGG + anchor), 100 nM annealed; ATP concentration: 500 uM
Procedure, shortened: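 Values give the fluorescence ratio for each switch-domain sequence, averaged from per-cluster ratios of summed target-cycle to summed buffer-cycle Cy3 intensity. The Cy3-labelled switching-strand clusters sat on a modified Illumina MiSeq flow-cell, were annealed to 100 nM quencher-labelled ATP aptamer, and were imaged in selection buffer, then after 15 min with 500 uM ATP at 22 °C. Five cycles ran with NaOH stripping and re-annealing between them, and clusters outside 100-1000 RFU were excluded.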
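Also: ATP exposure 15 min at 22 °C before imaging.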

Row | Sequence | switch fluorescence ratio
1 | CCGTTATGCA | 1.26 ± 0.018
2 | CCGTTCAGAA | 1.08 ± 0.019
3 | CCGTTTCGGT | 0.976 ± 0.014
4 | CCGTTTGTTT | 1.005 ± 0.005
5 | CCGTTTTAGT | 1.02 ± 0.039
6 | CCTAATGGGC | 1.014 ± 0.0092
7 | CCTACTTCCA | 1.103 ± 0.0013
8 | CCTAGCGCGC | 1.09 ± 0.043
9 | CCTAGGCCCG | 1.03 ± 0.053
10 | CCTAGGGGGT | 1.02 ± 0.029
11 | CCTAGGGTGT | 2.12 ± 0.32
12 | CCTAGGGTTT | 1 ± 0.038
13 | CCTATACGGG | 1.03 ± 0.049
14 | CCTATATAGA | 0.999 ± 0.029
15 | CCTATGGTTC | 1.07 ± 0.053
16 | CCTATTACGA | 1.04 ± 0.015
17 | CCTATTATTA | 1.02 ± 0.028
18 | CCTATTCCGG | 1.05 ± 0.03
19 | CCTATTCGTT | 1.0064 ± 0.0008
20 | CCTATTTTTT | 1.01 ± 0.034
21 | CCTCAATGGT | 1.39 ± 0.045
22 | CCTCACCCTT | 1.13 ± 0.013
23 | CCTCACTAGT | 1.0949 ± 8.2e-05
24 | CCTCATCTTG | 1.018 ± 0.0048
25 | CCTCGGGGGG | 1.06 ± 0.1

Row | Sequence | switch fluorescence ratio
26 | CCTCTGGAGG | 1.09 ± 0.013
27 | CCTCTTGAGG | 0.978 ± 0.016
28 | CCTGAAACCT | 1.51 ± 0.48
29 | CCTGAGATAC | 1.88 ± 1
30 | CCTGAGGTTC | 1.03 ± 0.061
31 | CCTGAGTTC | 0.996 ± 0.031
32 | CCTGGAAAGT | 0.985 ± 0.0074
33 | CCTGGCATGC | 2.56 ± 0.24
34 | CCTGGCATTG | 1.18 ± 0.09
35 | CCTGGCATTT | 2.2 ± 1.4
36 | CCTGGCCAGC | 0.978 ± 0.015
37 | CCTGGCTATC | 3.44 ± 0.91
38 | CCTGGCTCAT | 1.06 ± 0.037
39 | CCTGGGATT | 1.02 ± 0.011
40 | CCTGGGGAAA | 0.946 ± 0.021
41 | CCTGGGGATT | 1.07 ± 0.18
42 | CCTGGGGGTC | 1.03 ± 0.024
43 | CCTGGGGTAT | 1.09 ± 0.05
44 | CCTGGGGTCG | 1.05 ± 0.05
45 | CCTGGGTCGA | 1.022 ± 0.0044
46 | CCTGGGTGAA | 1.2 ± 0.03
47 | CCTGGGTTAG | 0.998 ± 0.017
48 | CCTGGTCCTA | 0.9879 ± 0.0074
49 | CCTGGTGACG | 1.035 ± 0.002
50 | CCTGGTTAGG | 0.983 ± 0.013

Row | Sequence | switch fluorescence ratio
51 | CCTGTACCAC | 1.07 ± 0.019
52 | CCTGTGGGGG | 0.993 ± 0.028
53 | CCTGTGGTGC | 1.342 ± 0.0072
54 | CCTGTGTCCG | 1.12 ± 0.052
55 | CCTGTTAAAT | 1.05 ± 0.022
56 | CCTGTTGCGA | 2.66 ± 0.52
57 | CCTGTTGGTT | 0.955 ± 0.033
58 | CCTGTTTCAG | 1.05 ± 0.018
59 | CCTTAACGGC | 1.06 ± 0.015
60 | CCTTAGGGGG | 1.24 ± 0.33
61 | CCTTATTGTC | 0.997 ± 0.024
62 | CCTTATTTTC | 0.9984 ± 0.0059
63 | CCTTCTAGTT | 1.035 ± 0.0018
64 | CCTTGACGGG | 1.18 ± 0.17
65 | CCTTGAGGGC | 1.34 ± 0.38
66 | CCTTGAGGGG | 0.9925 ± 0.0036
67 | CCTTGCGGGA | 1.06 ± 0.011
68 | CCTTGTAGGG | 1.02 ± 0.03
69 | CCTTGTTTAA | 1.01 ± 0.086
70 | CCTTTAGGGT | 0.9997 ± 0.0014
71 | CCTTTATGGT | 0.983 ± 0.011
72 | CCTTTGCCGC | 1.58 ± 0.54
73 | CCTTTGCTGT | 1.073 ± 0.0024
74 | CCTTTGGGCT | 0.989 ± 0.025
75 | CGAAAAATGG | 1.04 ± 0.046

Row | Sequence | switch fluorescence ratio
76 | CGAAAACTTT | 1.07 ± 0.064
77 | CGAAAAGAAT | 1.02 ± 0.029
78 | CGAAAATGGG | 0.9772 ± 0.0058
79 | CGAAAATTAA | 1 ± 0.047
80 | CGAAAGGGAC | 1.033 ± 0.0092
81 | CGAAAGTATA | 1.08 ± 0.075
82 | CGAAATACGG | 2.83 ± 0.18
83 | CGAAATGCTG | 1.09 ± 0.016
84 | CGAAATGTAA | 0.992 ± 0.024
85 | CGAACAGCGA | 1.27 ± 0.015
86 | CGAACAGGTT | 1.04 ± 0.02
87 | CGAACCTTCG | 2.35 ± 0.092
88 | CGAACTGCAG | 1.034 ± 0.0016
89 | CGAAGAGGGG | 0.995 ± 0.016
90 | CGAAGATGGG | 0.981 ± 0.03
91 | CGAAGCGCCC | 4.36 ± 3
92 | CGAAGGCGTA | 1.027 ± 0.0062
93 | CGAAGGCTCG | 0.99 ± 0.04
94 | CGAAGGGCTA | 1.15 ± 0.19
95 | CGAAGTTATG | 1.06 ± 0.03
96 | CGAAGTTTGG | 1.02 ± 0.02
97 | CGAATAGGCG | 0.976 ± 0.048
98 | CGAATCGGCT | 1.05 ± 0.054
99 | CGAATGGGGA | 0.992 ± 0.077
100 | CGAATGTGGG | 1.0147 ± 0.00075

Row | Sequence | switch fluorescence ratio
101 | CGAATTCCAC | 1.024 ± 0.0099
102 | CGAATTGGTA | 0.982 ± 0.011
103 | CGAATTTGCC | 1.01 ± 0.065
104 | CGAATTTGTC | 1.02 ± 0.035
105 | CGACCTTTTC | 1.4 ± 0.34
106 | CGACGAACTT | 1.236 ± 0.0059
107 | CGACTAAGAG | 1.02 ± 0.025
108 | CGACTATAGG | 1 ± 0.023
109 | CGACTTGAAA | 1.04 ± 0.041
110 | CGACTTGCGT | 1.01 ± 0.012
111 | CGACTTTCAA | 1.05 ± 0.032
112 | CGAGAAATGG | 1.07 ± 0.055
113 | CGAGAAGAGT | 1.01 ± 0.053
114 | CGAGAGAGTG | 0.96 ± 0.02
115 | CGAGAGGGGG | 0.9723 ± 0.0065
116 | CGAGCAGAGT | 1.13 ± 0.021
117 | CGAGCATTTT | 1.14 ± 0.017
118 | CGAGCGACGT | 0.9863 ± 0.007
119 | CGAGCTGTTT | 1.02 ± 0.0099
120 | CGAGCTTATA | 1.38 ± 0.032
121 | CGAGGAATTT | 1.04 ± 0.043
122 | CGAGGATAGG | 0.999 ± 0.035
123 | CGAGGCGCG | 0.9537 ± 0.008
124 | CGAGGGAGGG | 0.999 ± 0.015
125 | CGAGGGCCGG | 0.9974 ± 0.0081

Row | Sequence | switch fluorescence ratio
126 | CGAGGGGCTT | 0.997 ± 0.035
127 | CGAGGGGGCC | 0.97 ± 0.052
128 | CGAGGGGTTA | 1.01 ± 0.022
129 | CGAGGGGTTT | 0.984 ± 0.059
130 | CGAGGGTGTT | 1.05 ± 0.077
131 | CGAGGTGTAG | 0.98 ± 0.022
132 | CGAGGTTAAT | 1.051 ± 0.0011
133 | CGAGGTTAGG | 1.06 ± 0.062
134 | CGAGGTTATT | 1 ± 0.037
135 | CGAGGTTGGG | 1.002 ± 0.0028
136 | CGAGTAGAAT | 1.06 ± 0.065
137 | CGAGTCCTGT | 1 ± 0.02
138 | CGAGTCGGGA | 0.999 ± 0.021
139 | CGAGTGCCCA | 0.996 ± 0.033
140 | CGAGTTAAAA | 1.002 ± 0.0069
141 | CGAGTTCGGC | 0.976 ± 0.06
142 | CGAGTTGCTG | 0.988 ± 0.11
143 | CGAGTTGGGG | 1.01 ± 0.031
144 | CGAGTTTCGG | 1.011 ± 0.0073
145 | CGAGTTTTTA | 0.994 ± 0.027
146 | CGATAACATG | 0.9984 ± 0.0051
147 | CGATAACTGG | 1.05 ± 0.052
148 | CGATAATCGT | 1.002 ± 0.0098
149 | CGATAGGCAA | 1.66 ± 0.9
150 | CGATAGGGGT | 1.05 ± 0.074

Row | Sequence | switch fluorescence ratio
151 | CGATAGGTAC | 1.22 ± 0.027
152 | CGATATAGTC | 0.993 ± 0.049
153 | CGATATTTGG | 1 ± 0.02
154 | CGATCGGTTG | 0.9499 ± 0.0033
155 | CGATCTTTAC | 1.29 ± 0.017
156 | CGATGGCTGG | 0.976 ± 0.027
157 | CGATGGGGTG | 0.998 ± 0.025
158 | CGATGGTCGT | 0.975 ± 0.028
159 | CGATGGTTTT | 1.01 ± 0.044
160 | CGATGTAGTT | 0.995 ± 0.014
161 | CGATGTATAA | 1.01 ± 0.025
162 | CGATGTCAGC | 1.073 ± 0.0036
163 | CGATGTTTTG | 0.969 ± 0.031
164 | CGATTATAGG | 1.003 ± 0.0096
165 | CGATTCGAGG | 1.03 ± 0.011
166 | CGATTGGGAC | 1.01 ± 0.02
167 | CGATTGGGTA | 0.968 ± 0.038
168 | CGATTTAAGG | 0.9947 ± 0.0063
169 | CGATTTGACT | 1.02 ± 0.037
170 | CGATTTTTTT | 1.02 ± 0.05
171 | CGCAAAAGCA | 1.2 ± 0.027
172 | CGCAATGGGG | 2.98 ± 0.53
173 | CGCAATTCGA | 3.57 ± 1.3
174 | CGCACCTGAG | 1.23 ± 0.044
175 | CGCACCTGTA | 1.04 ± 0.037

Row | Sequence | switch fluorescence ratio
176 | CGCAGAAACG | 1 ± 0.036
177 | CGCAGAGCGA | 1.02 ± 0.0082
178 | CGCAGCGGTT | 1.49 ± 0.041
179 | CGCATAGGAC | 3.16 ± 0.28
180 | CGCATAGGGT | 1.13 ± 0.012
181 | CGCATAGTTG | 1.06 ± 0.024
182 | CGCATGAGGC | 1.18 ± 0.045
183 | CGCATGCTGG | 1.02 ± 0.024
184 | CGCATGGGCC | 1.4 ± 0.019
185 | CGCATGTCGA | 1.03 ± 0.025
186 | CGCATGTTTC | 1.2 ± 0.15
187 | CGCATTGGT | 1.31 ± 0.016
188 | CGCATTTAAG | 1.18 ± 0.046
189 | CGCATTTTGT | 1.06 ± 0.0043
190 | CGCCAGATTT | 0.9963 ± 0.0072
191 | CGCCATAGTG | 1.01 ± 0.039
192 | CGCCATTACG | 1.65 ± 0.024
193 | CGCCCAAAGG | 1.13 ± 0.11
194 | CGCCCCGAGA | 1.02 ± 0.015
195 | CGCCCCGCTG | 1.13 ± 0.071
196 | CGCCCCTGAA | 0.997 ± 0.017
197 | CGCCCGCACG | 1.93 ± 0.5
198 | CGCCGATTAA | 1.03 ± 0.062
199 | CGCCGCGTCA | 1 ± 0.038
200 | CGCCGGGAGG | 0.989 ± 0.073
